Measurements published in patent US20220162331A1 (CHENGDU CONMED BIOSCIENCES, published 2022).
Positions count from the first letter of the chain named.

Molecular target: T1, recombinant human CD73 extracellular domain (Trp27-Lys546) with C-terminal 6-histidine tag (human, UniProt P21589 27-547)
T1 construct: also called hCD73; hCD73-cHis
T1 sequence: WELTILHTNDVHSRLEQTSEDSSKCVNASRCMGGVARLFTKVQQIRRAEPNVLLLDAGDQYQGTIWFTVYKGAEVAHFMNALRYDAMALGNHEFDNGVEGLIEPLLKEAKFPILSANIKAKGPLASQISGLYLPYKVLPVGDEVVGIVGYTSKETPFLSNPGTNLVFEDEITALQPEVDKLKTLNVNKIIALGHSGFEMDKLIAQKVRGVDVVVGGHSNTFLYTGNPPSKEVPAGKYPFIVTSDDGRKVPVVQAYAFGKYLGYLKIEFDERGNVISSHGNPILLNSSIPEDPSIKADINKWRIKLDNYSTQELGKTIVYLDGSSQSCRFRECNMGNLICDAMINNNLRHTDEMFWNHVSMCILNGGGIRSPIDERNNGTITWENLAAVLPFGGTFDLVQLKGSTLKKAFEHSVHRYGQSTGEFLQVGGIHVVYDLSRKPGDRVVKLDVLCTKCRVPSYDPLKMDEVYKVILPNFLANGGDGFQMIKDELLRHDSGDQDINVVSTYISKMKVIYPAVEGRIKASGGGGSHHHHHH
Test: SPR, Biacore T200, antibody captured on Protein A chip, hCD73 ECD as analyte, 1:1 Langmuir
Experimental: The affinity of CD73 antibody was determined by plasma surface resonance on Biacore T200. At room temperature, the antibody concentration was diluted to 0.5 μg/mL with 1×HBS-EP buffer (prepared from HBS-EP+Buffer 10×, GE, BR1008-26), the Protein A chip (GE, 29-1275-56) was coated with a flow rate of 10 μL per minute, the capture time was about 40 seconds, and the coated RU value was controlled to be about 100 RU. The recombinant human CD73 extracellular domain protein was diluted to 3 μg/mL with 1×HBS-EP buffer, diluted to two-fold gradient, a total of 6 concentrations, 200 μL of each concentration gradient. The 1×HBS-EP buffer was used as a control, the flow rate was 30 μl/min, the binding time was 120 seconds, and the dissociation time was 600 seconds. The affinity was fitted using Langmuir 1:1 Kinetic theoretical model and analyzed by Biacore T200 Evaluation Software (Table 3).

B1: humanized anti-CD73 antibody 6G8 VH-v1/VK-v1 (antibody, V domains shown)
VH: QVTLRESGPALVKPTQTLTLTCTFSGFSLSTSGMGVGWIRQPPGKALEWLAHIWWDDDKYYNPSLKSRLTISKDTSKNQVVLTMTNMDPVDTATYYCARRERWAWFAYWGQGTLVTVSS
VL: DIQMTQSPSSLSASVGDRVTITCRASQNVFTNVAWYQQKPGKAPKVLIYSASYRYSGVPSRFSGSGSGTDFTLTISSLQPEDFATYFCQQYNSYPTFGQGTKLEIK
notes: Human IgG1 CH1-CH3 constant region and kappa constant region; also called hu6G8 VHv1 + hu6G8 Vkv1
  Kd: 0.272 nM
  koff: 0.000106 s⁻¹
  kon: 389000 M⁻¹ s⁻¹

B2: humanized anti-CD73 antibody 22C12 VH-v10/VL-v2 (antibody, V domains shown)
VH: QVQLVQSGAEVKKPGASVKVSCKASGYTFTGYWIQWVRQAPGQGLEWMGAIYPGDEDTRYTQKFQGRVTMTADTSISTAYMELSRLRSDDTAVYYCARGNWDDWDFDVWGQGTTVTVSS
VL: DIQMTQSPSSLSASVGDRVTITCRASQDISNYLNWYQQKPGKAPKLLIHYTSRLHSGVPSRFSGSGSGTDYTLTISSLQPEDFATYYCQQGDTLPWTFGQGTKVEIK
notes: Human IgG1 CH1-CH3 constant region and kappa constant region; also called hu22C12 VHv10 (printed hu22C12 Vilv10) + hu22C12 Vkv2
  Kd: 0.134 nM
  koff: 0.000225 s⁻¹
  kon: 1.68e+06 M⁻¹ s⁻¹

B3: humanized anti-CD73 antibody 22C12 VH-v9/Vk-v2 (antibody, V domains shown)
VH: B2 VH with E56S
VL: B2 VL
notes: Human IgG1 CH1-CH3 constant region and kappa constant region; also called hu22C12 VHv9 (printed hu22C12V11v9) + hu22C12 Vkv2
  Kd: 0.135 nM
  koff: 0.000165 s⁻¹
  kon: 1.22e+06 M⁻¹ s⁻¹

B4: humanized anti-CD73 antibody 22C12 VH-v10/VL-v3 (antibody, V domains shown)
VH: B2 VH
VL: B2 VL with Y71F
notes: Human IgG1 CH1-CH3 constant region and kappa constant region; also called hu22C12 VHv10 (printed hu22C12 Vilv10) + hu22C12 Vkv3
  Kd: 0.0956 nM
  koff: 0.000179 s⁻¹
  kon: 1.87e+06 M⁻¹ s⁻¹
